Test results from publication PMC11847541, “Liver fatty acid binding protein FABP1 transfers substrates to cytochrome P450 4A11 for catalysis” (The Journal of Biological Chemistry, 2025).
Several values for one entry are separate records, joined by “and”; a condition that tells them apart may be missing. Equal values may be shown once. Read-outs that look alike come from different tables or passages of the source.

Experiments:
[1] = molecular target: T1, P450 4A11 (Homo sapiens, UniProt Q02928)
T1 sequence (Q02928 5-519): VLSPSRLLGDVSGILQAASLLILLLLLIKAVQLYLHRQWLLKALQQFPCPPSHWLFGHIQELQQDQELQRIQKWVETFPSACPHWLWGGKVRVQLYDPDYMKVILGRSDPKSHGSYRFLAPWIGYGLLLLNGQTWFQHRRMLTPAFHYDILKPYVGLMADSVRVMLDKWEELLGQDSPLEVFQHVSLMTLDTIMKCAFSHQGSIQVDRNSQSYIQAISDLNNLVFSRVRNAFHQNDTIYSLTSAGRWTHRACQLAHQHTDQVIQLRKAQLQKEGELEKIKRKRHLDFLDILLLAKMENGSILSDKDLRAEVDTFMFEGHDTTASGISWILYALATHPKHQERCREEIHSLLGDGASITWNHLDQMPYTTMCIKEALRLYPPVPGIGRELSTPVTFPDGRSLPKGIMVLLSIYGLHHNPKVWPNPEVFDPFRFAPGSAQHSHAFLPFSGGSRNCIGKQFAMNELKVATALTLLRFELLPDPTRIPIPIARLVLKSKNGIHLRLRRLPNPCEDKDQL

[2] = molecular target: T2, P450 4A11 (Homo sapiens, UniProt Q02928); assay: Fluorescence titration of Alexa-FABP1 with P450 4A11; assay type: binding
T2 construct: made in house; host or cells: E. coli
T2 sequence (Q02928 5-519): T1 sequence (Q02928 5-519)
T2 sequence (P07148 with tags, fused parts or gaps partner): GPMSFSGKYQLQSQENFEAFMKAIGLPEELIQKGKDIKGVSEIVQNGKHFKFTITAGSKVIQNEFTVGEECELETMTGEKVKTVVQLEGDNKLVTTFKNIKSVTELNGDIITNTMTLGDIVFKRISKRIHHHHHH
Protocol: (§1) The Alexa-FABP1 construct was tested for P450 binding in a fluorescence titration with P450 4A11.
(§2) Figure 10 Binding of Alexa-FABP1 to P450 4A11.A, equilibrium binding titration of Alexa-FABP1 (25 nM) with P450 4A11 as the titrant (0–50 nM). Titrations were performed in 10 mM (closed circles) or 100 mM (open circles) potassium phosphate buffer (pH 7.4). A control reaction was performed with P450 101A1 (P450cam) in 100 mM KPhos (open squares). The change in fluorescence upon protein–protein binding was normalized to the corresponding change in a buffer control. […] Each data point corresponds to one independent replicate, ≥3 biological replicates were collected to confirm the effect. B, kinetics of binding of Alexa-FABP1 (0.125 μM) and P450 4A11 (0.125 μM). Six traces were averaged, and the data were fit to a single exponential curve (in red). The extracted binding rate was 2.0 ± 0.2 s^−1. FABP1, fatty acid binding protein.
Alexa-FABP1 (25 nM [estimated by an asborbance at 280 nm prior to conjugation reaction, accounting for dilution, and assuming no protein loss during the reaction]) was prepared in potassium phosphate buffer (10 mM or 100 mM, pH 7.4) in a 1 ml glass cuvette. A buffer baseline was recorded using an OLIS DM-45 spectrofluorometer (1.24 mm slit width) with excitation wavelength of 470 nm and scanning emission spectra from 500 to 600 nm. P450 4A11 (stored in 100 mM potassium phosphate buffer [pH 7.4] containing 20% glycerol) was titrated (0–50 nM) into the Alexa-FABP1 solution. The same experiment was repeated but with the P450 4A11 buffer used as the titrant to normalize the data for any solvent effect. […] As stimulation was observed by the P450 interaction, the value of one was subtracted from the normalized fluorescence values so that the curve would have an (x, y) intercept of (0, 0). Kd values were calculated fitting plots of the normalized fluorescence at emission maximum versus concentration of P450 4A11 using a quadratic equation in GraphPad Prism software.

[3] = molecular target: T3, P450 101A1 (P450cam) (Pseudomonas putida, UniProt P00183); assay: Control fluorescence titration of Alexa-FABP1 with P450 101A1 (P450cam); assay type: binding, bacterial; settings: 100 mM KPhos
T3 construct: made in house
T3 sequence (P00183 whole entry, looked up): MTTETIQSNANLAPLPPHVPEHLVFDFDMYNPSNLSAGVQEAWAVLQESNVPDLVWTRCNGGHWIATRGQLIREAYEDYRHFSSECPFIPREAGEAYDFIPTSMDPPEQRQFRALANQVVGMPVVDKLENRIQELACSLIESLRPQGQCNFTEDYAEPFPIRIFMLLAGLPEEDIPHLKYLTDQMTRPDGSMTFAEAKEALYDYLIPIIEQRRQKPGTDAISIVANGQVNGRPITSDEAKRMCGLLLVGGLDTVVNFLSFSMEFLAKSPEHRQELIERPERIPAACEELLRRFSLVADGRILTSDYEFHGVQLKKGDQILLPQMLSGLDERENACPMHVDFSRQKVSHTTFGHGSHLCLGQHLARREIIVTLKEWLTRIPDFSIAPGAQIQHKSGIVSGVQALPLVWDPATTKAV
Protocol: as §1, §2

[4] = molecular target: T2, P450 4A11; assay: Alexa-FABP1 and P450 4A11 association kinetics (stopped-flow fluorescence); assay type: binding
Protocol: We then investigated whether the rate of protein–protein association could be estimated using our fluorescent construct. A solution of Alexa-FABP1 (125 nM final concentration) was rapidly mixed with P450 4A11 (125 Nm final concentration), and Alexa-488 fluorescence was monitored over time. The data were fit to a single exponential equation and yielded an association rate of 2.0 ± 0.2 s^−1 (Fig. 10B).
To estimate a rate of interaction for FABP1 and P450, we loaded the protein–protein binding data (Fig. 10B) and fit the data to a simple model, E+F↔EF , as described in the Experimental procedures section. The software fit a kon rate of 2.0 × 10^7 M^−1 s^−1, close to that estimated by using the extracted binding rate ∼2 s^−1 at the concentration (0.125 μM) of either reaction component (i.e., 2 s^−1/0.125 μM = 16 μM^−1 s^−1 = 1.6 × 10^7 M^−1 s^−1).
Mixing solutions (2 ml) of (A) Alexa-FABP1 (0.25 μM [estimated by A280 prior to conjugation reaction, accounting for dilution, and assuming no protein loss during the reaction as described earlier]) and (B) P450 4A11 (0.25 μM) were prepared in potassium phosphate buffer (100 mM, pH 7.4) and loaded into the stopped-flow spectrofluorometer described earlier. The instrument (1.24 mm slit width) was set with an excitation wavelength of 470 nm and Oriel end-on filter for emission >495 nm. The fluorescence maximum of Alexa-FABP1 is 510 nm as described earlier, and stimulation is observed upon protein–protein binding (see “Titrations of Alexa-FABP1 with P450 4A11”). At least six replicate measurements were recorded, the spectra were processed such that the fluorescence gain (from DAUDA binding) began at an (x, y) intercept of (0, 0), and the spectra were averaged. A smoothing factor of 0.4 was applied to the data (in Microsoft Excel), and the resulting curve was fit to a single exponential plot in GraphPad Prism, and the rate of association was extracted. The data were loaded into KinTek Explorer and fit to a minimal kinetic model of protein–protein association (i.e., E+F↔EF ), and a second-order rate constant for the association was extracted.

[5] = molecular target: T1, P450 4A11; set-up: made in house; host or cells: E. coli; method as in PMID 25203493; settings: cited from earlier work
[6] = molecular target: T4, Cytochrome P450 4A11 (human, UniProt Q02928 5-519); assay: other fluorescence titration; Alexa-FABP1 (25 nM) in the cuvette, P450 4A11 titrated in (0–50 nM); 10 mM potassium phosphate, pH 7.4; excitation 470 nm, emission maximum 510 nm; quadratic fit; no phospholipid; settings: both partners purified
T4 construct: cytochrome P450 4A11, human fatty acid ω-hydroxylase
T4 sequence (looked up): T1 sequence (Q02928 5-519)

[7] = molecular target: T4, Cytochrome P450 4A11; assay: other fluorescence titration; Alexa-FABP1 (25 nM) in the cuvette, P450 titrated in (P450 4A11 0–50 nM); 100 mM potassium phosphate, pH 7.4; excitation 470 nm, emission maximum 510 nm; normalized to a buffer titration; no phospholipid; settings: both partners purified
[8] = molecular target: T4, Cytochrome P450 4A11; assay: stopped-flow fluorescence kinetics; Alexa-FABP1 and P450 4A11 rapidly mixed, 0.125 μM each final; 100 mM potassium phosphate, pH 7.4; excitation 470 nm, emission >495 nm; single exponential fit and KinTek Explorer fit to E+F↔EF; settings: both partners purified

CC(=O)N1CCN(c2ccc(OCC3COC(Cn4ccnc4)(c4ccc(Cl)cc4Cl)O3)cc2)CC1 (centres unmarked) [ketoconazole]
P450 heme Soret spectral shift induced [1]: type II

Alexa-FABP1: FABP1 labeled at Cys-71 with Alexa-488 C5 maleimide
decrease of Kd on reducing ionic strength ([2]; 100 mM to 10 mM potassium phosphate): ~38 fold | Kd ([2]; dependent on ionic strength): 3 to 124 nM | change of Alexa-FABP1 fluorescence [3]: mild attenuation of fluorescence | rate of protein–protein association ([4]; Alexa-FABP1 0.125 μM, P450 4A11 0.125 μM, single exponential): ~2 s⁻¹ and 2.0 ± 0.2 s⁻¹ | kon of FABP1–P450 4A11 association (k6) ([4]; KinTek fit to E+F↔EF): ~2e+07 M⁻¹ s⁻¹

O=C(O)CCCCCCCCCCCO [12-OH laurate]
P450 heme Soret spectral shift induced [5]: typical type I spectral shift

B1: Alexa Fluor 488–labeled FABP1 (natural protein, human, UniProt P07148 1-127, looked up)
chain: MSFSGKYQLQSQENFEAFMKAIGLPEELIQKGKDIKGVSEIVQNGKHFKFTITAGSKVIQNEFTVGEECELETMTGEKVKTVVQLEGDNKLVTTFKNIKSVTELNGDIITNTMTLGDIVFKRISKRI
modifications: Alexa Fluor 488 C5 maleimide on Cys-71 of the construct (Cys-69 of FABP1); low background labeling of free amines
notes: final construct is a 15,185.4 Da protein; Cys-69 of FABP1 is Cys-71 in the construct. numbers count on: Cys-71 on the construct, Cys-69 on FABP1; The unlabeled, delipidated form of the same protein was used in the palmitate transfer and catalytic assays; also called Alexa-FABP1; Alexa-488-labeled FABP1; not shown: GST, N-terminal, cleaved; His6, C-terminal, kept
Kd [6]: 3.3 ± 0.9 nM | Kd [7]: 120 ± 80 nM | koff [8]: 2.4 s⁻¹ | kon [8]: 2e+07 M⁻¹ s⁻¹
